Test results taken from patent publication US20220411523A1 (HEFEI HANKEMAB BIOTECHNOLOGY, published 2022).
Like-named read-outs stand apart in the source and are kept apart here.

Columns and labels:
[1] = molecular target: T1, human 4-1BB M101R, on the cell surface (human, UniProt Q07011 24-255); assay: FACS (MFI) on cells transiently transfected with human 4-1BB M101R, antibody titrated from about 0.04 to 10 µg/ml
T1 construct: Point mutant of human 4-1BB on transiently transfected cells

[2] = molecular target: T2, human 4-1BB full length, on the cell surface (human, UniProt Q07011 24-255); assay: FACS, CHO-K1-hu4-1BB cells
T2 construct: also called CHO-K1-hu4-1BB; WT (Human 4-1BB full length, Expi293 transient)

[3] = molecular target: T3, human 4-1BB N42R, on the cell surface (human, UniProt Q07011 24-255); assay: FACS (MFI) on cells transiently transfected with human 4-1BB N42R, antibody titrated from about 0.04 to 10 µg/ml
T3 construct: Point mutant of human 4-1BB on transiently transfected cells

[4] = molecular target: T4, monkey 4-1BB (Cy4-1BB) (SEQ ID No.6), coated on the ELISA plate (monkey, UniProt Q07011 24-186 (human entry), limits assumed); assay: ELISA, coated monkey 4-1BB
T4 chain: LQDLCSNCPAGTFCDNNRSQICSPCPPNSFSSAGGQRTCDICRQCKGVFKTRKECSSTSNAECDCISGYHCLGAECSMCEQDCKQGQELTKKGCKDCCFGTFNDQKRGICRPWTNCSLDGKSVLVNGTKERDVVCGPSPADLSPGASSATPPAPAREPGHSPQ

[5] = molecular target: T5, human 4-1BB I132R, on the cell surface (human, UniProt Q07011 24-255); assay: FACS (MFI) on cells transiently transfected with human 4-1BB I132R, antibody titrated from about 0.04 to 10 µg/ml
T5 construct: Point mutant of human 4-1BB on transiently transfected cells

[6] = molecular target: T2, human 4-1BB full length, on the cell …; assay: FACS, CHO-K1-hu4-1BB cells; remark: listed apart in the source
[7] = molecular target: T6, monkey 4-1BB on the cell membrane surface of CHO-K1 cells (monkey, UniProt Q07011 24-255 (human entry)); assay: FACS, CHO-K1-cy4-1BB cells
T6 construct: also called CHO-K1-cy4-1BB
T6 chain: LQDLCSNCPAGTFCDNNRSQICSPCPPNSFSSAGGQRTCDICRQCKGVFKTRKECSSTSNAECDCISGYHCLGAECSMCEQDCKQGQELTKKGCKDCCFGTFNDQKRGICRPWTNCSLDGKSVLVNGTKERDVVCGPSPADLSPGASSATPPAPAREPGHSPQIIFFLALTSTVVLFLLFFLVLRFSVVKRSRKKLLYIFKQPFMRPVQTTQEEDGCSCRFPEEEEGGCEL

[8] = molecular target: T7, human 4-1BB (SEQ ID No.5), coated on the ELISA plate (human, UniProt Q07011 24-186, limits assumed); assay: ELISA, coated human 4-1BB
T7 construct: also called CD137

[9] = molecular target: T8, h4-1BB-His antigen (Acro company, product number: Q07011-1) (human, UniProt Q07011 24-186); assay: BLI (Fortebio), h4-1BB-His
T8 construct: Q07011-1 is printed as a product number; not shown: His tag

[10] = molecular target: T2, human 4-1BB full length, on the cell …; assay: FACS competition, CHO-K1-hu4-1BB; labelled Bio-Hanke10F4 1.5 µg/ml fixed, competitor varied
[11] = molecular target: T2, human 4-1BB full length, on the cell …; assay: FACS competition, CHO-K1-hu4-1BB; labelled Bio-4-1BBL 2 µg/ml fixed, competitor varied
[12] = molecular target: T2, human 4-1BB full length, on the cell …; assay: FACS (MFI) on cells transiently transfected with human 4-1BB WT, antibody titrated from about 0.04 to 10 µg/ml
[13] = molecular target: T2, human 4-1BB full length, on the cell …; assay: FACS competition, CHO-K1-hu4-1BB; labelled Bio-Hanke10F4 1.5 µg/ml fixed, competitor varied; remark: listed apart in the source

T8 sequence (Q07011 24-186, one chain of several): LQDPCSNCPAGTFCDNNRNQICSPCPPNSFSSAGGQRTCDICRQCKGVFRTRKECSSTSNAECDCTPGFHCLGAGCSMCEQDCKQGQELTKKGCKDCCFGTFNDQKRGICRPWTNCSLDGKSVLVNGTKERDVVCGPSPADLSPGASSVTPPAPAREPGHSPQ
T7 sequence (Q07011 24-186 limits assumed): as the sequence (Q07011 24-186, one chain of several) above

B1: Hanke10F4 (antibody, human IgG4 S228P, kappa, V domains shown)
VH: QVQLQESGPGLVKPSETLSITCTVSGSSLTSYGVHWVRQPPGKGLEGLGVIWPGGSTNYNSALMSRLTISKDNSKSQVSLKMSSLTAADTAMYYCARVTGTWYFDVWGQGTTVTVSS
VL: DIQMTQSPSSLSASLGDRVTISCSASQGISNYLNWYQQKPDGTVKLLIYYTSTLHSGVPSRFSGSGSGTDFTLTISSLQPEDVATYYCQQYSKLPWTFGGGTKLEIKR
notes: Heavy chain type IgG4, light chain kappa; Humanized from hybridoma antibody 37G10F4, transformed from scFvB60103; also called humanized anti-human 4-1BB antibody Hanke10F4; Hanke10F4 monoclonal antibody
[1]
  EC50 (read off the curve): ~0.7 µg/mL
[2]
  EC50: 1.77 µg/mL
[3]
  EC50 (read off the curve): ~0.7 µg/mL
[4]
  EC50: 0.0267 µg/mL
[5]
  EC50 (read off the curve): ~0.7 µg/mL
[6]
  EC50: 1.6 µg/mL
[7]
  EC50: 1.81 µg/mL
[8]
  EC50: 0.0186 µg/mL
[9]
  Kd: 13.9 nM
  koff: 0.00241 s⁻¹
  kon: 173000 M⁻¹ s⁻¹
[10]
  FACS signal of Bio-Hanke10F4 at (B:A) Ratio 0.05859375: 7260
  FACS signal of Bio-Hanke10F4 at (B:A) Ratio 0.234375: 6840
  FACS signal of Bio-Hanke10F4 at (B:A) Ratio 0.9375: 5000
  FACS signal of Bio-Hanke10F4 at (B:A) Ratio 3.75: 1740
  FACS signal of Bio-Hanke10F4 at (B:A) Ratio 15: 635
  FACS signal of Bio-Hanke10F4 at (B:A) Ratio 60: 230
[11]
  FACS signal of Bio-4-1BBL at (B:A) Ratio 0.03906: 7700
  FACS signal of Bio-4-1BBL at (B:A) Ratio 0.15625: 7460
  FACS signal of Bio-4-1BBL at (B:A) Ratio 0.625: 6920
  FACS signal of Bio-4-1BBL at (B:A) Ratio 2.5: 5860
  FACS signal of Bio-4-1BBL at (B:A) Ratio 10: 4310
  FACS signal of Bio-4-1BBL at (B:A) Ratio 40: 3510
[12]
  EC50 (read off the curve): ~0.7 µg/mL
[13]
  FACS signal of Bio-Hanke10F4 at (B:A) Ratio 0.058593: 7260
  FACS signal of Bio-Hanke10F4 at (B:A) Ratio 0.23437: 6840
  FACS signal of Bio-Hanke10F4 at (B:A) Ratio 0.9375: 5000
  FACS signal of Bio-Hanke10F4 at (B:A) Ratio 3.75: 1740
  FACS signal of Bio-Hanke10F4 at (B:A) Ratio 15: 635
  FACS signal of Bio-Hanke10F4 at (B:A) Ratio 60: 230

B2: HKB6 (antibody, V domains shown)
VH: QVQLKESGPGLVAPSQSLSITCTVSGFSLTTYDISWIRQPPGKGLEWLGVIWTGGGTNYNSTFMSRLSINKDNSKSQVFLKMNSLQTDDTAIYYCVRVDYWGQGTSVTVSS
VL: DVVMTQTPLSLPVSLGDQASISCRSSQSLVHSNGNTYLHWFLQKPGQSPKLLIYKVSNRFPGVPDRFSGSGSGTDFTLKISRVEAEDLGVYFCSQNTHVPWTFGGGTKLEIKR
[6]
  EC50: 1.8 µg/mL
